Measured values published in US20190185562A1 (Regeneron, published 2019).

Tests used:
[1] = target: T1, extracellular domain of human LEPR, GPI-anchored on HEK293/hLEPR-GPI cells (human, UniProt P48357 22-839, GPI anchor at the C-terminus ; GPI anchor at the C-terminus, added through the carboxypeptidase M signal peptide. The protein is displayed on the HEK293 cell membrane.); test: FACS, 200 nM antibody, HEK293/hLEPR-GPI cells, No Leptin
T1 sequence: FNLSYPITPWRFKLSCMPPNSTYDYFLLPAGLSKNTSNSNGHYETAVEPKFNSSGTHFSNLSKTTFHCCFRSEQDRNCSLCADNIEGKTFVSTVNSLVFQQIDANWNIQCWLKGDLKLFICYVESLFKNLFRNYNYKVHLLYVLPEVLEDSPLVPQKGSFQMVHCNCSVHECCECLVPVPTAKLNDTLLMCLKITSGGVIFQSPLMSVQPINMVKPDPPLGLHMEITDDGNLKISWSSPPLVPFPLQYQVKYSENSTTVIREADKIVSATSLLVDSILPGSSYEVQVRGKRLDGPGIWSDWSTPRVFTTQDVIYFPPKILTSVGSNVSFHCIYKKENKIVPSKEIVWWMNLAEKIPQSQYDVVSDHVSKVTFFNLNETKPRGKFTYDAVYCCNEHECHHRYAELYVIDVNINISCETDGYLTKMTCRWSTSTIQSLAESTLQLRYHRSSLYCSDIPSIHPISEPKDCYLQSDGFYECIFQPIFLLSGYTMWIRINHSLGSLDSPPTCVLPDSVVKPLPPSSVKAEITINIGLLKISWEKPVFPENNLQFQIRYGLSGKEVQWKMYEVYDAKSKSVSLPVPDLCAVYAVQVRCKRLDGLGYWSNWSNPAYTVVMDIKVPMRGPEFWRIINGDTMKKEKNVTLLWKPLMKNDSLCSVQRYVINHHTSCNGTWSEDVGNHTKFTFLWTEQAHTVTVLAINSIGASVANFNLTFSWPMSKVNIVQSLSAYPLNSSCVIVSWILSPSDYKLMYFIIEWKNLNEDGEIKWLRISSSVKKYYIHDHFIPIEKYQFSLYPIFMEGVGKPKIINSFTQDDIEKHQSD
Procedure: (§1) For the FACS analysis, 0.5×10^6 cells/well of HEK293 parental cells, HEK293/Stat3-luc/gp130-2X Sort cells, and HEK293/hLEPR-GPI cells, were incubated with 200 nM of the conventional antibodies against either GP130 or LEPR or with LEPR×GP130 bispecific antibodies, along with isotype control antibodies at 4° C. in PBS (without calcium and magnesium) containing 2% FBS.
(§2) Cells were fixed using BD CytoFix™ (Becton Dickinson, #554655) and analyzed on an IQue® (Intellicyt) Flow Cytometer. Unstained and secondary antibody alone controls were also tested for all cell lines. The results were analyzed using ForeCyt® (IntelliCyt) and FlowJo version 10 softwares to determine the geometric means of fluorescence for viable cells.

[2] = target: T2, full length human GP130 (leucine at position 2 changed to valine) on HEK293/Stat3-luc/gp130-2X Sort cells (human, UniProt P40189 23-918); test: FACS, 200 nM antibody, HEK293/gp130 2X Sort cells
T2 construct: whole, on cells; also called HEK293/gp130 2X Sort
T2 sequence (looked up): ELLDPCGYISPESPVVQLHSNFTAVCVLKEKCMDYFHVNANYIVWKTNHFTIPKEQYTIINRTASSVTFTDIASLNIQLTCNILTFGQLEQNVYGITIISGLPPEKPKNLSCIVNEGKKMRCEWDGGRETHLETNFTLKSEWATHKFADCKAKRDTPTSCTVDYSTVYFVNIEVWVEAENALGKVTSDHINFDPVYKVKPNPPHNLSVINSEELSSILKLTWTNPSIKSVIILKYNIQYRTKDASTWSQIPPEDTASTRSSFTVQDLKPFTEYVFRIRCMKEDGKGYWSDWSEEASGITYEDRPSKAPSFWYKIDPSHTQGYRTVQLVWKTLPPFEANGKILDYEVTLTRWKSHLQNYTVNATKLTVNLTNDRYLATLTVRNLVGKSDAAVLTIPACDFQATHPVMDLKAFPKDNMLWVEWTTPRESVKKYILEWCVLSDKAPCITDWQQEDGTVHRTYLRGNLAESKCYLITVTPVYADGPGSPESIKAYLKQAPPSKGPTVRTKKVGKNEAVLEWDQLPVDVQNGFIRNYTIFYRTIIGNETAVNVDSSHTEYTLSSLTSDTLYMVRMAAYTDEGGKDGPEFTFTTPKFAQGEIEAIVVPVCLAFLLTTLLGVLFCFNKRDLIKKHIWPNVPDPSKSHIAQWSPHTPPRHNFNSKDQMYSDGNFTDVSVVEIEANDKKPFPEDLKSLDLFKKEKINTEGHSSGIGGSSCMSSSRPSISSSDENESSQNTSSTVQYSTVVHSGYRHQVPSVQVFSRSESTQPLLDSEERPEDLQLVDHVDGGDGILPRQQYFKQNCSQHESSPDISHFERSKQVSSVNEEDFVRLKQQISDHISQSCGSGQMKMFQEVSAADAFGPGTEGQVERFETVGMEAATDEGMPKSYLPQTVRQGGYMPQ
Procedure: as §1, §2

[3] = target: T3, mutant human LEPR (Y1141F) on HEK293.STAT3.Luc.GP130.hLEPR (Y1141F) cells (human, UniProt P48357 22-1165); test: cell-based or functional assay
T3 sequence (looked up): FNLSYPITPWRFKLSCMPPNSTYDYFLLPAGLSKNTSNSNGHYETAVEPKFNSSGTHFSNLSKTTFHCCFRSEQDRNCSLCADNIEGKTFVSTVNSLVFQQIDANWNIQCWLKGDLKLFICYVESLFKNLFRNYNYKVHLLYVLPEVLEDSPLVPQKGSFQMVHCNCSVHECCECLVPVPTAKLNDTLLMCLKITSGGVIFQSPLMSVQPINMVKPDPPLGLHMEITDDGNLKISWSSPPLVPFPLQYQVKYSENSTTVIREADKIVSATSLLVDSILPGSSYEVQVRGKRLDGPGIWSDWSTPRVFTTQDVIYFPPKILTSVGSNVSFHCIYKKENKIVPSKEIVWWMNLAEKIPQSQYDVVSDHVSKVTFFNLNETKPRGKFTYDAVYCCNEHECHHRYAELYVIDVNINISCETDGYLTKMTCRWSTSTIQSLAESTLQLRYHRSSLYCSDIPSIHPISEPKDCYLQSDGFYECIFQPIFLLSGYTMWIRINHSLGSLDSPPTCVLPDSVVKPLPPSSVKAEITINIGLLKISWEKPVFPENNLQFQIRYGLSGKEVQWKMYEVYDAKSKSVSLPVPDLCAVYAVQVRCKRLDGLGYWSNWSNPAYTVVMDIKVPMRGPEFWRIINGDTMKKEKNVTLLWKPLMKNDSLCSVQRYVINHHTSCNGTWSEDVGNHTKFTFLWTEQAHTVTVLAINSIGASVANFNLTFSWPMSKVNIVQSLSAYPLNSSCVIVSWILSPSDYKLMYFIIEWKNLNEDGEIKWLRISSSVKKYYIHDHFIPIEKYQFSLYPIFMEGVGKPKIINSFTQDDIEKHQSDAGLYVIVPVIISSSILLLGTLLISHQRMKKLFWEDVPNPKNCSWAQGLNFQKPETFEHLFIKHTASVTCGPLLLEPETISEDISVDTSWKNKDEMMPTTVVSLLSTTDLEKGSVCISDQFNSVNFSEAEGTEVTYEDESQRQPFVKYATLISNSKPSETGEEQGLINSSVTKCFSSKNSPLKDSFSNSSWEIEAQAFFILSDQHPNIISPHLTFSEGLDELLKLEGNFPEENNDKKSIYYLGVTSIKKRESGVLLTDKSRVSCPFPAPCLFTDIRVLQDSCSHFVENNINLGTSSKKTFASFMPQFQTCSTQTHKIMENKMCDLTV

[4] = target: T4, wild-type human GP130 on HEK293.STAT3.Luc.GP130.hLEPR reporter cells (human, UniProt P40189 23-918); test: cell-based or functional assay
T4 sequence (looked up): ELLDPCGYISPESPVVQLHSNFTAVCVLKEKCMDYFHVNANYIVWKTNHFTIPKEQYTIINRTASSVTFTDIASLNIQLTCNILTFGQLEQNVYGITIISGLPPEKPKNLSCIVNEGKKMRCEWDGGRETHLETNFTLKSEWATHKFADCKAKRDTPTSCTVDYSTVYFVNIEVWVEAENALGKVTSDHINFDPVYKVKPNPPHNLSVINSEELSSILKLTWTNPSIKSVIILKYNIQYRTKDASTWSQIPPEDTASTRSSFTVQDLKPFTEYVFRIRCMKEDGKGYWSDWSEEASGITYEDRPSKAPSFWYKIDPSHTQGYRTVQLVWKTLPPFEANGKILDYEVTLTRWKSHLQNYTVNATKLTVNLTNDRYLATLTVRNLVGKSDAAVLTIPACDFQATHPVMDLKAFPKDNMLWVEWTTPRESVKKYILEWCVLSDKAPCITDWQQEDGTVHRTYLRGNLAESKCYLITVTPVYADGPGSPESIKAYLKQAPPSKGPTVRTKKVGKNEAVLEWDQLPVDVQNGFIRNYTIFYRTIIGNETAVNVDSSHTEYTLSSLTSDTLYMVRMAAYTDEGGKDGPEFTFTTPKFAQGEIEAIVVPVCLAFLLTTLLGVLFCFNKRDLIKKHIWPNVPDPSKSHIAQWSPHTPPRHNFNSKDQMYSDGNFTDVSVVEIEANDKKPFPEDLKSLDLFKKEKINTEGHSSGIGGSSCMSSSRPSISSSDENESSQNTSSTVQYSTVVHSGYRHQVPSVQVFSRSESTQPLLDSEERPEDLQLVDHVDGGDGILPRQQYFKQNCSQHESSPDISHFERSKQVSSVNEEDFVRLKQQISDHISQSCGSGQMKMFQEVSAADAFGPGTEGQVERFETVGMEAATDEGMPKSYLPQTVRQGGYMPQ

[5] = target: T1, extracellular domain of human LEPR, …; test: FACS, 200 nM antibody, HEK293/hLEPR-GPI cells, 1 µM Leptin present
Procedure: as §1, §2

[6] = target: T5, human LEPR extracellular domain expressed with a C-terminal myc-myc-hexahistidine tag (human, UniProt P48357 22-839); test: SPR (Biacore 4000), antibody captured by anti-human Fc, 25 C
T5 construct: Monomeric reagent; the entry named is the whole tagged construct; also called hLEPR-MMH; hLEPR.mmh

[7] = target: T6, macaca fascicularis LEPR extracellular domain expressed with a C-terminal myc-myc-hexahistidine tag (Macaca fascicularis, UniProt Q9MYL0 22-837 (rhesus entry)); test: as above
T6 construct: Monomeric reagent; the entry named is the whole tagged construct; also called mfLEPR-MMH

B1: mAb16683 (antibody, V domains shown)
VH: QVQLVESGGGLVKPGGSLRLSCAASGFTFSDYYMTWIRQTPGKGLDWVSYISSSGTNKYNADSVKGRFTISRDNAKNSLYLQMNSLRAEDTAVYYCVRDPPWGMDVWGQGTTVTVSS
VL: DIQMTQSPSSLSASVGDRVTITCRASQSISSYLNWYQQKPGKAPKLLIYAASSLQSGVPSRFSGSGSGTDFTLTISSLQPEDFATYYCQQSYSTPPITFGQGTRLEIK
notes: Conventional anti-GP130 antibody; also called mAb16683 (anti-GP130 mAb)
Binding Ratio: Normalized to Unstained Sample of Each Cell Line (FL4-A) [1]: 21 ratio | Binding Ratio: Normalized to Unstained Sample of Each Cell Line (FL4-A) [2]: 235 ratio

B2: bsAb21237D (bispecific antibody, V domains shown)
VH 1: EVQLVESGGGLVQPGGSLRLSCAASGFTFSNYGMTWVRQAPGKGLEWVSAITGGGGSTYYSNSVKGRFTISRDNSKNTVYLRMNSVRAEDTAVYYCAKYKWNFVDDWGQGTTVTVSS
VH 2: QVQLVESGGGLVKPGGSLRLSCAASGFTFSDYYMTWIRQTPGKGLDWVSYISSSGTNKYNADSVKGRFTISRDNAKNSLYLQMNSLRAEDTAVYYCVRDPPWGMDVWGQGTTVTVSS
VL: not shown
notes: LEPR x GP130 bispecific with common light chain; also called H4H21237D; bsAb21237 (LEPR × GP130)
Percentage activation as compared to hOSM [3]: 20% | EC50 (M), STAT3-luciferase activation of HEK293.STAT3.Luc.GP130.hLEPR (Y1141F) cells, 10 nM leptin [4]: 2.46e-09 M | Percentage activation as compared to hOSM [4]: 20% | Binding Ratio: Normalized to Unstained Sample of Each Cell Line (FL4-A) [1]: 6320 ratio | Binding Ratio: Normalized to Unstained Sample of Each Cell Line (FL4-A) [5]: 5930 ratio | Binding Ratio: Normalized to Unstained Sample of Each Cell Line (FL4-A) [2]: 169 ratio

B3: bsAb21236D (bispecific antibody, V domains shown)
VH 1: QVQLQESGPGLVKPSQTLSLTCTVSGGSISSGGDYWSWIRQLPGKGLEWIGYIYYSGSAYYNPSLKSRGTISIDTSKNQFSLKLTSVTAADTAVYFCVKLRFLEWFLGGWFGPWGQGTLVTVSS
VH 2: QVQLVESGGGLVKPGGSLRLSCAASGFTFSDYYMTWIRQTPGKGLDWVSYISSSGTNKYNADSVKGRFTISRDNAKNSLYLQMNSLRAEDTAVYYCVRDPPWGMDVWGQGTTVTVSS
VL: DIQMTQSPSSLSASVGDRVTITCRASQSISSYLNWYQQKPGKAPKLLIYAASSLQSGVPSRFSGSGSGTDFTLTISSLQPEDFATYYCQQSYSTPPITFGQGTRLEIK
notes: LEPR x GP130 bispecific antibody; also called H4H21236D
100 nM hLEPR-MMH Bound (RU) [6]: 8 RU

B4: bsAb21237D (bispecific antibody, V domains shown)
VH 1: EVQLVESGGGLVQPGGSLRLSCAASGFTFSNYGMTWVRQAPGKGLEWVSAITGGGGSTYYSNSVKGRFTISRDNSKNTVYLRMNSVRAEDTAVYYCAKYKWNFVDDWGQGTTVTVSS
VH 2: QVQLVESGGGLVKPGGSLRLSCAASGFTFSDYYMTWIRQTPGKGLDWVSYISSSGTNKYNADSVKGRFTISRDNAKNSLYLQMNSLRAEDTAVYYCVRDPPWGMDVWGQGTTVTVSS
VL: not shown
notes: LEPR x GP130 bispecific antibody; also called H4H21237D
t½ [7]: 10 min | t½ [6]: 10 min
